These are literature values, as cited in publication PMC3159028.

One may read the Kd as the constant that tells how readily two partners part at equilibrium.

This data set has as its target Ndel1 58-169 (Homo sapiens) (UniProt Q9GZM8).

Lis1, sequence (P43034 whole entry): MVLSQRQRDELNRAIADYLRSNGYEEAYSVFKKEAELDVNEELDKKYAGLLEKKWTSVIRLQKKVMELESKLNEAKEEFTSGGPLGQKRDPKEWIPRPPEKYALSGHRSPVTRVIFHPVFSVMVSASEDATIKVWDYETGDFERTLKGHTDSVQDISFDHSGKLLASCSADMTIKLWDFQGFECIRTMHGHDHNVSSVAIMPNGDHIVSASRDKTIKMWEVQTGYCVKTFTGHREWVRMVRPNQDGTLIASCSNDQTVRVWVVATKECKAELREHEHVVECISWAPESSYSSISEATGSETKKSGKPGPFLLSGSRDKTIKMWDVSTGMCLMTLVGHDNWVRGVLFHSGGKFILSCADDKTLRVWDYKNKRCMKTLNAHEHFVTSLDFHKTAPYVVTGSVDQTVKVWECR
Ndel1 58-169 (Homo sapiens), sequence (Q9GZM8 58-169): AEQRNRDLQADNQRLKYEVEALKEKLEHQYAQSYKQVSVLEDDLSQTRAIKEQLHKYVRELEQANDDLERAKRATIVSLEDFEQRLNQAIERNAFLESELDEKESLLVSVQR

In the case of Lis1 (from UniProt P43034), the Kd was 300 nM.
